Experimental data: PMC6155051, “Structures of insect Imp-L2 suggest an alternative strategy for regulating the bioavailability of insulin-like hormones” (Nature Communications, 2018)

How the values were obtained:
[1] = molecular target: Drosophila imaginal morphogenesis protein-late 2 protein (Imp-L2) (Drosophila melanogaster) (UniProt Q09024); experiment: ITC; Imp-L2 (12.8-22.6 uM) in the cell, hormone about tenfold greater injected; 50 mM Tris, 150 mM NaCl, pH 7.4; 25 C; hormone concentrations adjusted to a 1:1 stoichiometry
[2] = molecular target: Drosophila imaginal morphogenesis protein-late 2 protein (Imp-L2) (Drosophila melanogaster) (UniProt Q09024); experiment: ITC; DILP5:Imp-L2 binding as a function of salt: 300 mM NaCl
[3] = molecular target: T1, Drosophila imaginal morphogenesis protein-late 2 protein (Imp-L2) (Drosophila melanogaster, UniProt Q09024 26-267); experiment: ITC; 300 mM NaCl (legend says 400 mM)
T1 chain: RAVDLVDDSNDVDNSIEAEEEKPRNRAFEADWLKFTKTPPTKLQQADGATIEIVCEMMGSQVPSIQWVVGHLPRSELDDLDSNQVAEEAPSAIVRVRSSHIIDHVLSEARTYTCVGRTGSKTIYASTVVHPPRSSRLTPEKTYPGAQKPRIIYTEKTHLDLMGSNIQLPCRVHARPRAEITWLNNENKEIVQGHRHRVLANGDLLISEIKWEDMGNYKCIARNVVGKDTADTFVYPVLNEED

[4] = molecular target: Drosophila imaginal morphogenesis protein-late 2 protein (Imp-L2) (Drosophila melanogaster) (UniProt Q09024); experiment: ITC; DILP5:Imp-L2 binding as a function of salt: 300 mM NaCl; remark: listed apart in the source
[5] = molecular target: the molecule itself; experiment: SEC-MALS; ligand-free Imp-L2, 1 mg/mL, 50 mM Tris pH 7.4, 50 mM NaCl; Superdex S200 10/300

Question: For “Insulin X14 (ProB28Asp), fully monomeric mutant of human insulin (ligand)”, which Kd [1] is on record?
Answer: The Kd was 135000 pM.

B1: Drosophila insulin-like peptide 5, C4 variant (B2-B29) (ligand)
chain 1: NSLRACGPALMDMLRVACPNGFNSMFAK
chain 2: DFRGVVDSCCRNSCSFSTLRAYCDS
Question: What does the source list for B1?
Answer: Kd [2]: 1 pM; Kd [3]: 5.4 pM; Kd [4]: 5 pM; Kd [1]: 8000 pM

B2: Drosophila imaginal morphogenesis protein-late 2 protein (Imp-L2) (natural protein, Drosophila melanogaster, UniProt Q09024 26-267, looked up)
chain: T1 chain
notes: signal peptide in the construct: full-length Drosophila Imp-L2 with the native signal peptide, secreted into the medium; After 3C cleavage, residues of the protease site should remain at the C-terminus (surmised); A selenomethionine-labelled form was also made; the apo structure was solved by MAD; also called Dm Imp-L2; apo-Imp-L2; source: baculovirus-infected Sf9 cells, purified from conditioned …
Question: B2 was tested. Which “stoichiometry N” value [5] did it give?
Answer: Its value is 2.
